Data as given in patent US7432342B2, “Kinase anchor protein muteins, peptides thereof and related documents” (Sequenom, Inc., priority 2002, dated 2008).
Read-outs that look alike come from different tables or passages of the source. One block for each molecule: values may come before it. Ends that are not written are not given here. Peptide text beside a SMILES is read from it.

How the values were obtained:
PKA-RIα-GFP = PKA-RIα-GFP (Bos taurus, UniProt P00514); assay: Surface plasmon resonance (BIAcore CM5 chips); type: binding
Experimental: Two 27-mer peptides representing the Ile and Val variants (SEQ ID NOs:1 and 2, respectively) were synthesized and purified in milligram quantities and the affinity to PKA-RIα-GFP was determined using well-known surface plasmon resonance in combination with BIAcore chips (see, e.g., Current Opinion in Biotechnology (1997) 8:50-57; Current Opinion in Biotechnology (1994) 5:389-395; Current Opinion in Biotechnology (1994) 5:65-71; Structure (1995) 3:969; Current Biology (1995) pp. 699-705; Analytical Biochemistry (1991) 201:197-210; and macinfac.bio.unc.edu/biacore.html). PKA-RIα-GFP was coupled to BIAcore CM5 chips. BSA was immobilized on control chips.
The affinities in this assay are lower compared to those determined by fluorescence anisotropy. The most likely reason is that in this study the signal difference between the flow cell with the regulatory subunit and the control protein BSA was measured, such that slight unspecific binding to BSA directly reduces the apparent affinity. However, similar to previous results, an affinity difference of PKA-RIα-GFP to both allelic 27-mer peptides was observed (Table 6).

RIα = RIα (Bos taurus, UniProt P00514); assay: Fluorescence anisotropy binding of labeled 27-mer AKB Ile/Val peptides (Example 2); conditions: in vitro; 10 nM labeled peptide
Experimental: To assess the magnitude of the affinity difference, binding of both Ile/Val variants to the R-subunit isoforms of PKA was analyzed in a quantitative assay. Twenty-seven residue peptides containing the two AKB domain Ile/Val variants (SEQ ID NOs:1 and 2, respectively) of D-AKAP2 with a C-terminal cysteine were synthesized by SynPep Corporation (Dublin, Calif.). The peptides were HPLC (high performance liquid chromatography) purified and mass spectrometry checked. Both peptides were labeled with tetramethyl rhodamine-5-maleiamide (Molecular Probes, Eugene, Oreg.) at the cysteine residue and HPLC purified. Increasing concentrations of RIα and RIIβ, respectively, were equilibrated with 10 nM of peptide for at least one hour at room temperature in 10 mM HEPES, 150 mM NaCl, 3 mM EDTA, 0.005% polysorbate 20. […] Fluorescence anisotropy was monitored using a Fluoromax-2 (Spex, Jobin Yvon Horiba, Edison, N.J.) equipped with polarizers. The fluorophore was excited at 541 nm (5-10 nm bandpass) and emission was monitored at 575 nm (5-10 nm bandpass). […]
Peptides of each AKB Ile/Val variant (SEQ ID NOs:1 and 2) were synthesized and fluorescence-labeled. Binding of the labeled peptides to the regulatory subunit isoforms was monitored using a fluorescence assay in which binding of the peptide was proportional to an increase in steady state anisotropy. […]

RIα isoform of PKA = RIα isoform of PKA (Bos taurus, UniProt P00514); assay: In vitro pull-down assay of GST-fused AKB domain variants (Example 1); type: binding; conditions: GST fusion of 40 C-terminal residues of D-AKAP2; RIα 20 μM; mouse and human AKB domains
Description: Binding of each AKB domain variant to PKA was first examined using an in vitro pull-down assay, in which the 40 C-terminal residues of D-AKAP2 (amino acids 623-662 of SEQ ID NO:64) containing the AKB were fused to glutathione-S-transferase (GST). The GST fusion constructs were made by fusing the 40 C-terminal amino acids of D-AKAP2 to the C-terminus of GST and subcloning between the NdeI and BamHI sites of pRSET (Invitrogen, Carlsbad, Calif.). The constructs were transfected into BL21 cells and expressed for 6 hours at 20° C. The cells were lysed in PBS with 5 mM BME and 0.1% Triton X-100. 3 μl of supernatant were added to 200 μl of this buffer and 10 μl glutathione beads. After three washes, RIα (53 μg, 20 μM) and RIIα (2.4 μg, 2 μM) were added to the beads, respectively, and the total volume was adjusted to 40 μl. After incubating for 30 min at 4° C., the beads were washed three times, and separated in a 10% acrylamide gel.

RIα-D/D-GFP = target: T1, RIα-D/D-GFP (Bos taurus, UniProt P00514); assay: Co-localization of PKA regulatory domain with mitochondria-targeted AKB domain in 10T(1/2) cells (Example 3); type: cell-based; conditions: C-terminal 156 residues of D-AKAP2 fused to D-AKAP1 mitochondrial anchoring domain
T1 construct: The dimerization/docking (D/D) domain of RIα and full-length RIIα were each fused with green fluorescent protein (GFP); expressed in transfected cells; host or cells: 10T(1/2) cells
Description: The 30 amino acid mitochondrial anchoring domain of D-AKAP1 (Chen et al. (1997) J. Biol. Chem., 272:15247-57; and Huang et al. (1997) J. Biol. Chem., 272:8057-8064) was fused to the C-terminal 156 residues of mouse (amino acids 217-372 of SEQ ID NO:55) and human (amino acids 507-662 of SEQ ID NO:64) D-AKAP2, respectively, followed by a Flag-tag and subcloned into pcDNA4 (Invitrogen, Carlsbad, Calif.). The dimerization/docking (D/D) domain of RIα and full-length RIIα were each fused with green fluorescent protein (GFP) and cloned into pEGFPN1 (Clontech, Palo Alto, Calif.). […] The AKB domain was detected by immuno-staining with monoclonal antibodies against the Flag-tag (Kodak, Rochester, N.Y.) followed by rhodamine-conjugated secondary antibody (Jackson Lab, Bar Harbor, Me.). […]
In this assay, the AKB domain within the C-terminal 156 residues of D-AKAP2 from mouse (Val) and human (Ile) was fused to the mitochondrial anchoring domain from D-AKAP1 and tethered to the outer mitochondrial membrane (Chen et al. (1997) J. Biol. Chem., 272:15247-15257; and Huang et al. (1997) J. Biol. Chem., 272:8057-8064). The binding of the AKB domain with the PKA regulatory domains was detected as the co-transfected PKA regulatory domains co-localized to the mitochondria. […]

PKA-RIIα-GFP = PKA-RIIα-GFP (Mus musculus, UniProt P12367); assay: ELISA of biotinylated 27-mer peptide immobilized on neutravidin plates; type: binding; conditions: 25 μM peptide on neutravidin; 0-5 μg/ml PKA-RIIα-GFP
Experimental: The peptide biotin-bA-bA-[…] (SEQ ID NO:14) was synthesized as a C-terminal amide in milligram quantity and purified to a 96% purity by HPLC. Its identity was confirmed by MALDI TOF (matrix-assisted laser desorption ionization time-of-flight) mass spectrometry. The peptide was immobilized in neutravidin (NA)-coated 96-well microtiter plates and incubated with various concentrations of PKA-RIIα-GFP. Binding was detected using an anti-GFP antibody (3E6, Quantum Biotechnologies, QBiogene, Carlsbad, Calif.) in combination with a second horseradish peroxidase labeled antibody. Microtiterplates were coated with 40 μg/ml Neutravidin (NA) and subsequently incubated with 25 μM peptide. Various concentrations (0-5 μg/ml) of PKA-RIIα-GFP were added. Bound subunit was detected using a mouse anti-GFP antibody (1 μg/ml) and an anti-mouse-IgG-antibody labeled with peroxidase (1 μg/ml). Negative controls were utilized that contained either a microtiter plate with only neutravidine or only peptide, or neither one.

RIα, sequence (P00514 whole entry, the tested form may be a part, canonical isoform): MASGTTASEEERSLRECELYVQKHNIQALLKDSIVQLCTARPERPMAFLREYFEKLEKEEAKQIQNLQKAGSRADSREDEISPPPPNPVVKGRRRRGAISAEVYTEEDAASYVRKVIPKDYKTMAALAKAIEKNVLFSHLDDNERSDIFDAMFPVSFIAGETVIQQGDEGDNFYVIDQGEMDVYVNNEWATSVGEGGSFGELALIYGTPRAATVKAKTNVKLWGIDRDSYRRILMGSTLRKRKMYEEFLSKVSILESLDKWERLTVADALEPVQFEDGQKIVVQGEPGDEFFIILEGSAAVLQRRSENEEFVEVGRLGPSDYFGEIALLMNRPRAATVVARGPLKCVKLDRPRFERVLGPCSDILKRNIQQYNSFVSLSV
PKA-RIα-GFP, sequence (P00514 1-109 limits assumed): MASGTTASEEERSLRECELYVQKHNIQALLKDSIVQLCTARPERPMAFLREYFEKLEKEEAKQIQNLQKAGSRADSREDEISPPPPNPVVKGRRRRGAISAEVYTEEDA
RIα isoform of PKA, sequence (P00514 whole entry, the tested form may be a part, canonical isoform): as the sequence (P00514 whole entry, the tested form may be a part, canonical isoform) above
PKA-RIIα-GFP, sequence (P12367 1-46): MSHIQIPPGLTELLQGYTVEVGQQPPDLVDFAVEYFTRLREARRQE
T1 sequence (P00514 2-135 limits assumed): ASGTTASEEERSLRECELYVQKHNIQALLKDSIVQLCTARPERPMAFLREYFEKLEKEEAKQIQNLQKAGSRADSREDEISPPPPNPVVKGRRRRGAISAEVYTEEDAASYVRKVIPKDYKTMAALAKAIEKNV

Molecule: CC[C@H](C)[C@H](NC(=O)[C@H](CCCCN)NC(=O)[C@H](Cc1c[nH]c2ccccc12)NC(=O)[C@H](C)NC(=O)[C@H](CC(C)C)NC(=O)[C@H](CCC(=O)O)NC(=O)[C@H](CCC(=O)O)NC(=O)[C@H](CCC(N)=O)NC(=O)[C@H](C)NC(=O)[C@H](CCC(=O)O)NC(=O)[C@H](CC(=O)O)NC(=O)[C@@H](NC(=O)[C@H](CC(N)=O)NC(=O)CNC(=O)[C@H](CCC(N)=O)NC(=O)[C@@H](NC(C)=O)C(C)C)[C@@H](C)O)C(=O)N[C@@H](C)C(=O)N[C@@H](CCCCN)C(=O)N[C@@H](CCSC)C(=O)N[C@H](C(=O)N[C@H](C(=O)N[C@@H](CO)C(=O)N[C@@H](CC(=O)O)C(=O)N[C@H](C(=O)N[C@@H](CCSC)C(=O)N[C@@H](CCC(N)=O)C(=O)N[C@@H](CCC(N)=O)C(N)=O)C(C)C)C(C)C)[C@@H](C)CC [SEQ ID NO:15] (Ac-VQGNTDEAQEELAWKIAKMIVSDVMQQ-NH2)
Kd (PKA-RIα-GFP): 0.5 µM

Kd (PKA-RIα-GFP; PKA-RIα-GFP coupled to chip (1681 RU), BSA control chip, read-out: PKA-RIα-GFP binding affinity): 0.86 µM
Molecule: CC[C@H](C)[C@H](NC(=O)[C@H](CCCCN)NC(=O)[C@H](Cc1c[nH]c2ccccc12)NC(=O)[C@H](C)NC(=O)[C@H](CC(C)C)NC(=O)[C@H](CCC(=O)O)NC(=O)[C@H](CCC(=O)O)NC(=O)[C@H](CCC(N)=O)NC(=O)[C@H](C)NC(=O)[C@H](CCC(=O)O)NC(=O)[C@H](CC(=O)O)NC(=O)[C@@H](NC(=O)[C@H](CC(N)=O)NC(=O)CNC(=O)[C@H](CCC(N)=O)NC(=O)[C@@H](NC(C)=O)C(C)C)[C@@H](C)O)C(=O)N[C@@H](C)C(=O)N[C@@H](CCCCN)C(=O)N[C@@H](CCSC)C(=O)N[C@H](C(=O)N[C@H](C(=O)N[C@@H](CO)C(=O)N[C@@H](CC(=O)O)C(=O)N[C@H](C(=O)N[C@@H](CCSC)C(=O)N[C@@H](CCC(N)=O)C(=O)N[C@@H](CCC(N)=O)C(N)=O)[C@@H](C)CC)C(C)C)[C@@H](C)CC [SEQ ID NO:16] (Ac-VQGNTDEAQEELAWKIAKMIVSDIMQQ-NH2)

Molecule: VQGNTDEAQEELAWKIAKMIVSDVMQQ (not fully specified (N-terminus); listed as Homo sapiens) [SEQ ID NO:2]
binding affinity to RIα compared to the Ile variant (RIα): nearly three-fold increase in binding affinity

binding of the RIα isoform of PKA to the AKB variant (RIα isoform of PKA): significantly higher affinity
binding affinity to RIα compared to the Ile variant (RIα): three-fold tighter
Molecule: Val variant: D-AKAP2 AKB domain with Val at amino acid 646 (SEQ ID NO:65), tested as GST fusion or mitochondria-targeted fusion construct (VQGNTDEAQEELAWKIAKMIVSDVMQQAQYDQPLEKSTKL; not fully specified)
targeting of RIα to the mitochondria (RIα-D/D-GFP): effectively targeted RIα to the mitochondria

Molecule: biotin-bA-bA-VQGNTDEAQEELAWKIAKMIVSDIMQQ [SEQ ID NO:14]
binding to PKA-RIIα in ELISA (PKA-RIIα-GFP): able to bind to PKA-RIIα
